The values below come from PMC4577212, “X-Ray Structure and Mutagenesis Studies of the N-Isopropylammelide Isopropylaminohydrolase, AtzC” (PLoS ONE, 2015).

As a reminder, the Km is the substrate concentration at which the rate is half of its maximum. One may read the kcat as the maximal rate divided by the concentration of active sites. Broadly, the kcat/Km is the second-order rate constant that governs catalysis at low substrate concentration.

For the first series, the system named is T1, Nc1nc(O)nc(O)n1.
T1 construct: full length, N-terminal His-tag (pETCC2, from pET14b), expressed in E. coli BL21(DE3); tag cut with thrombin for crystals; homotetramer ~210 kDa; Zn enzyme
In words: purified protein. Type of series: biochemical, Pseudomonas sp. ADP. The note with it: 200 mM sodium phosphate pH 7.5, glycerol, 301 K, 28.0 °C.
With “AtzC (N-isopropylammelide isopropylaminohydrolase) (Pseudomonas sp. ADP; D188A)”, the Km came out at 2200 ± 200 µM, the kcat is 106 ± 11.4 s⁻¹ and the kcat/Km was 49000 M⁻¹ s⁻¹.
In the same order, the values of “AtzC (N-isopropylammelide isopropylaminohydrolase) (Pseudomonas sp. ADP; D303N)” are 6100 ± 600 µM, 90.4 ± 8.9 s⁻¹ and 15000 M⁻¹ s⁻¹.
For “AtzC (N-isopropylammelide isopropylaminohydrolase) (Pseudomonas sp. ADP; H219A)”, the Km was 1600 ± 400 µM, the kcat was determined as 16.8 ± 4 s⁻¹ and the kcat/Km came to 11000 M⁻¹ s⁻¹.
As for “AtzC (N-isopropylammelide isopropylaminohydrolase) (Pseudomonas sp. ADP; K65A)”, the Km was determined as 6100 ± 600 µM, the kcat was 778 ± 79.7 s⁻¹ and the kcat/Km amounted to 130000 M⁻¹ s⁻¹.
For the substance “AtzC (N-isopropylammelide isopropylaminohydrolase) (Pseudomonas sp. ADP; K65R)”, the Km was 2400 ± 300 µM, the kcat stood at 332 ± 34.3 s⁻¹ and the kcat/Km was determined as 140000 M⁻¹ s⁻¹.
As to “AtzC (N-isopropylammelide isopropylaminohydrolase) (Pseudomonas sp. ADP; N304A)”, the Km came out at 4200 ± 200 µM, the kcat was determined as 29.3 ± 1.7 s⁻¹ and the kcat/Km turned out to be 7000 M⁻¹ s⁻¹.
Regarding “AtzC (N-isopropylammelide isopropylaminohydrolase) (Pseudomonas sp. ADP; N304D)”, the Michaelis constant (Km) was determined as 25000 ± 4500 µM, the kcat is 189 ± 34 s⁻¹ and the kcat/Km came to 7600 M⁻¹ s⁻¹.
For the substance “AtzC (N-isopropylammelide isopropylaminohydrolase) (Pseudomonas sp. ADP; Q160A)”, the Km is 1800 ± 300 µM, the kcat came out at 23 ± 3.5 s⁻¹ and the kcat/Km was 13000 M⁻¹ s⁻¹.
Take “AtzC (N-isopropylammelide isopropylaminohydrolase) (Pseudomonas sp. ADP; Q160E)”: the Km was found to be 1300 ± 100 µM, the kcat was found to be 10.4 ± 0.5 s⁻¹ and the specificity constant (kcat/Km) was determined as 8100 M⁻¹ s⁻¹.

The next series has as its system Nc1nc(O)nc(O)n1. In words: purified protein. The note with it: 200 mM sodium phosphate pH 7.5, glycerol, 301 K, 28.0 °C.
For “AtzC (N-isopropylammelide isopropylaminohydrolase) (Pseudomonas sp. ADP; D188N)”, the Km turned out to be 1900 ± 500 µM.
